Assay results as given in patent US20220280618A1 (ADMINISTRATORS OF THE TULANE EDUCATIONAL FUND, published 2022).

B1: HuMAb 1.10C (anti-MET6) (antibody, V domains shown)
VH: EVQLVESGGGLVKPGGSLRLSCKASGFNFTNSWMSWVRQAPGKGLEWLGRIKSESDGGATRYAAPVTGRFSISRDDSRDMLFLQMNSLTTDDTAMYYCTTNKVTTNYWGQGTLVTVSS
VL: DIVMTQSPVTLAVSLGERATINCKSSQSLLYSSDNENYLTWYQQKPGQPPKLLIYWASVRESGIPDRFIGSGSVTDFTLTINNVQAEDVAVYYCQQFRYTPLTFGQGTTLEIK
notes: also called 1.100
B3: Fba peptide (synthetic, from fructose-bisphosphate aldolase) (peptide)
peptide: YGKDVKDLFDYAQE
B4: HuMAb 1.11D (anti-Fba) (antibody, V domains shown)
VH: EVQLVQSGGGLVQPGGSLRLSCSASGFTFRTYAMSWVRQAPGKGLQWVSVISRSGDTTYHTDSVKGRFTISRDNSRNALYLQLDSLRAEDTALYYCAKTGNMAVGDRRTNYSYYYMDVWGKGTTVTVSS
VL: DIVMTQSPSTLSASVGDRVTITCRASQSIKYWLAWYQQKPGKAPKLLIYKASNLESGVPSRFSGSGSGTEFTLTISSLRPDDFATYYCQQYNSYPLTFGGGTVEIK
B5: MET6 peptide (synthetic, from methyltetrahydropteroyltriglutamate homocysteine methyltransferase) (peptide)
peptide: PRIGGQRELKKITE
notes: also called MEM

Tests used:
[1] = molecular target: T1, MET6-Biotin peptide (Candida albicans, not fully specified; C-terminal K-Biotin (PRIGGQRELKKITEPGGSGGSGK-Biotin)); assay: BLI (BLITz), btn-Met6 peptide on streptavidin tip, IgG in solution
T1 construct: also called btn-Met6 peptide; MFT6-Biotin
T1 peptide: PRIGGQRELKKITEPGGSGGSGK
Experimental: (§1) Binding experiments were performed using a FortèBio BLITz Bi-layer interferometer at 25° C. […] Loaded sensors were dipped into serial dilutions of the cognate IgG.

[2] = molecular target: B3; assay: ELISA on peptide-coated wells, HRP goat anti-human IgG, absorbance at 450 nm
[3] = molecular target: B5; assay: as above
[4] = molecular target: T1, MET6-Biotin peptide; assay: BLI (BLITz), btn-Met6 peptide on streptavidin tip, IgG in solution; BLITz run of Dec. 3, 2018
[5] = molecular target: T1, MET6-Biotin peptide; assay: bio-layer interferometry (Octet), steady state analysis, met6-btn on streptavidin sensors
[6] = molecular target: T1, MET6-Biotin peptide; assay: bio-layer interferometry (Octet), met6-btn loaded on streptavidin sensors, kinetic 1:1 fit
[7] = molecular target: T1, MET6-Biotin peptide; assay: BLI (Octet HTX), kinetic 1:1 fit, biotinylated peptide on streptavidin sensor, IgG in solution; kinetic measurement (FIG. 4)
[8] = molecular target: T1, MET6-Biotin peptide; assay: bio-layer interferometry (Octet), met6-btn loaded on streptavidin sensors, kinetic 1:1 fit; column head kdis(1/s)
[9] = molecular target: T1, MET6-Biotin peptide; assay: BLI (Octet HTX), steady-state analysis, biotinylated peptide on streptavidin sensor, IgG in solution; steady-state measurement (FIG. 5)
[10] = molecular target: T2, full-length His-tagged recombinant Fba protein from C. albicans (Candida albicans, UniProt Q9URB4 2-359); assay: bio-layer interferometry (BLITz), His-Fba (C. albicans) loaded on an anti-penta-His sensor, antibody in the association step
T2 construct: mature; also called His-Fba; whole length recombinant Fba (C. albicans); not shown: six-histidine (6-His) amino terminal tag from vector pRSET A
T2 sequence (looked up): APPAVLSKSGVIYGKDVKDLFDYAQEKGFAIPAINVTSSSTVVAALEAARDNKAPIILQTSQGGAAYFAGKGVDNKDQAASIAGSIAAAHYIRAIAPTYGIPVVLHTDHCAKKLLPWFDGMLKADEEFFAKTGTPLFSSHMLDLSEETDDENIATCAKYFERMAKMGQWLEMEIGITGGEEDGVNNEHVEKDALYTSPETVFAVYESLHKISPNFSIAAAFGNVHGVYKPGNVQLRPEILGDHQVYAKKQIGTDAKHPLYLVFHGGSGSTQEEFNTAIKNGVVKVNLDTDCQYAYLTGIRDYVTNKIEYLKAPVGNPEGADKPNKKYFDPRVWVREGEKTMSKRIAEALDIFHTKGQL

[11] = molecular target: T3, full-length His-tagged recombinant Met6 protein from C. albicans (Candida albicans, UniProt P82610 2-767); assay: bio-layer interferometry (BLITz), His-Met6 (C. albicans) from bacterial supernatant loaded on an anti-penta-His sensor, antibody in the association step
T3 construct: mature; also called His-Met6; whole length recombinant MET6; not shown: six-histidine (6-His) amino terminal tag from vector pRSET A
T3 sequence (looked up): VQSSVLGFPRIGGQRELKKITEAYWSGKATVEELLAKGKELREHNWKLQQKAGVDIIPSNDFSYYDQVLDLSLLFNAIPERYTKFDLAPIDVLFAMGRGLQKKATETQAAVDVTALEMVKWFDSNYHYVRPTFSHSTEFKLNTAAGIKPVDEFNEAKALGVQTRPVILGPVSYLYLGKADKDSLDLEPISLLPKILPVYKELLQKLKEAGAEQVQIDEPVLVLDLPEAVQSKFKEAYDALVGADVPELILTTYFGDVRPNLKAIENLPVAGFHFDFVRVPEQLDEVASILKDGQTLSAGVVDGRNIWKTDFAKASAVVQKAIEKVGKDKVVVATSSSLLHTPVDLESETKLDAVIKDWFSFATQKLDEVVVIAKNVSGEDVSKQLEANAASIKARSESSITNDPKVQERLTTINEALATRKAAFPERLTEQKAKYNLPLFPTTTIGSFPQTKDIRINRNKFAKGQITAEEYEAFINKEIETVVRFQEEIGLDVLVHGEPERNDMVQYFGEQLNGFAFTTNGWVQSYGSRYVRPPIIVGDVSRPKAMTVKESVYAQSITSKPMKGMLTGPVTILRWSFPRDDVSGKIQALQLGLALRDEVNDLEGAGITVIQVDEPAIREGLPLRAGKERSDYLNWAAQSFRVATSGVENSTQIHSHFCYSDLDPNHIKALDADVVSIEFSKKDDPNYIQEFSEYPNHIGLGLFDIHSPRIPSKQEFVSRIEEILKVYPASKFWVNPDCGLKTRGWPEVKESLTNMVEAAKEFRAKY

[12] = molecular target: B4; assay: competition ELISA: 1.11D mixed with free Fba peptide and added to Fba peptide-coated wells; the competitor is the coated Fba peptide
[13] = molecular target: T4, Fba-Biotin peptide (Candida albicans, not fully specified; C-terminal K-Biotin (YGKDVKDLFDYAQEGGSGGSGK-Biotin)); assay: BLI (BLITz), btn-Fba peptide on streptavidin tip, IgG in solution
T4 construct: also called btn-Fba peptide
T4 peptide: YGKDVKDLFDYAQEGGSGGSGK
Experimental: as §1

[14] = molecular target: T4, Fba-Biotin peptide; assay: bio-layer interferometry (Octet), steady state analysis, Fba-btn on streptavidin sensors
[15] = molecular target: T4, Fba-Biotin peptide; assay: bio-layer interferometry (Octet), Fba-btn at 10 ng/ml loaded on streptavidin sensors, kinetic 1:1 fit
[16] = molecular target: T4, Fba-Biotin peptide; assay: BLI (Octet HTX), kinetic 1:1 fit, biotinylated peptide on streptavidin sensor, IgG in solution; kinetic measurement (FIG. 4)
[17] = molecular target: T4, Fba-Biotin peptide; assay: BLI (Octet HTX), steady-state analysis, biotinylated peptide on streptavidin sensor, IgG in solution; steady-state measurement (FIG. 5)
[18] = molecular target: T4, Fba-Biotin peptide; assay: bio-layer interferometry (Octet), Fba-btn at 10 ng/ml loaded on streptavidin sensors, kinetic 1:1 fit; column head kdis(1/s)
[19] = molecular target: B1; assay: competition ELISA: 1.10C mixed with free MET6 peptide and added to MET6 peptide-coated wells; the competitor is the coated MET6 peptide

B1
koff [1]: 0.0055 s⁻¹
kon [1]: 31000 M⁻¹ s⁻¹
binding result [2]: no binding
binding result [3]: binds
Kd [4]: 180 nM
Kd [5]: 310 nM
Kd [6]: 179 nM
kon [6]: 69500 M⁻¹ s⁻¹
Kd [7]: ~180 nM
koff [8]: 0.0124 s⁻¹
Kd [9]: ~310 nM
binding result [10]: no binding
binding result [11]: binds

B2: HuMAb 1.B10 (anti-Met6) (antibody, V domains shown)
VH: EVQLVQSGGGLVKPGGSLRLSCAASGFIFSNAWMNWVRQAPGKGLEWVGRIKRESDSGTTDYGAAVKGRFTISRDDSKYTLYLQMNSLKTDDTAVYYCTTGWADYWGQGTLVTVSS
VL: LIQPPSVSVSPGQTARITCSGDALPNKYAYWYQQKPGQAPSVVMFRDNERPSGIPERFSGSSSGTTVTLTISGVQAEDESDFYCQSTDSNGAWVFGGGTKLTVL
Kd [1]: 31 nM
koff [1]: 0.0064 s⁻¹
kon [1]: 210000 M⁻¹ s⁻¹

B3
IC50 (read off the curve) [12]: ~4 µg/mL

B4
Kd [13]: 19.8 nM
koff [13]: 0.00073 s⁻¹
kon [13]: 38000 M⁻¹ s⁻¹
Kd [14]: 77 nM
Kd [15]: 58.5 nM
kon [15]: 111000 M⁻¹ s⁻¹
Kd [16]: ~58 nM
Kd [17]: ~77 nM
koff [18]: 0.00646 s⁻¹

B5
IC50 (read off the curve) [19]: ~2 µg/mL

B6: HuMAb 6.11C (anti-Fba) (antibody, V domains shown)
VH: QVQLVQSGAEVKKPGASVQVSCRTSGYTFINYFMHWVRQAPGQGLEWMGIINPNGGKTRYAQKFQGRLTVTRDTSTNTVYVELSNLRYEDTGLYFCARDPEGEVGFDYWGQGTQVTVSS
VL: SHELTQPPSVSVSPGQTARITCSGDALSKQYAYWYQQKPGQAPVVVIYKDNERPSGIPERFSGSSSGTTVTLTITGVQAEDEADYYCQSTDTSRAYYVFGTGTKVTVL
Kd [13]: 120 nM
koff [13]: 0.06 s⁻¹
kon [13]: 490000 M⁻¹ s⁻¹

B7: HuMAb 6.6K (anti-Met6) (antibody, V domains shown)
VH: QVQLVESGGGVVQPGRSLRLSCAASGFNFISYGMHWVRQAPGKGLEWVALISYDGSNKYYADSVKGRFTISRDNSKNTLYLQMNSLRAEDTAVYYCATEAYVETAMVPQYWGQGTLVTVSS
VL: SYELTQPPSVSVSPGQTARITCSGDALPKEYAYWYQQKSGQAPVVVIYEDSKRPSGIPERFSGSSSGTMATLTISGAQVEDEADYHCYSTDSSGNPVFGGGTKLTVL
Kd [1]: 160 nM
koff [1]: 0.012 s⁻¹
kon [1]: 75000 M⁻¹ s⁻¹
